Consider 2 molecules from PMC4838342 (Nucleic Acids Research, 2015).

This experiment has as its system MBP H3 116–135. In words: Pulldown of MBP H3 116–135 by (His)6-sNASP truncations. The following applies: (His)6-tagged sNASP truncations, SDS-PAGE, Coomassie, western blotting for MBP. It counts as binding. The procedure: Protein was eluted in the same buffer with 250 mM imidazole, but without protease inhibitors. The (His)6 tag was cleaved overnight by TEV protease, whilst concomitantly dialysing to 100 mM sodium chloride, 20 mM Tris–HCl pH 8.0, 1 mM EDTA and 5 mM dithiothreitol. Cleaved protein was further purified by ion-exchange using a ResourceQ column (GE Healthcare) before gel filtration chromatography in 200 mM sodium chloride, 20 mM Hepes-KOH pH 7.6 and 1 mM EDTA using a 26/60 Superdex 200 column (GE Healthcare). The purified protein was concentrated and stored in aliquots at −80°C. Homologues, truncations and point mutants of sNASP were expressed and purified using the same method. MBP-H3 peptide fusions were expressed in bacteria and used as whole cell extracts (epitope mapping) or purified over a Dextrin Sepharose column (GE Healthcare) in one-step purification in 0.5 M sodium chloride, 20 mM Hepes-KOH pH 7.6, 1 mM EDTA and 5 mM dithiothreitol. Concentrated protein was dialysed against 200 mM sodium chloride, 20 mM Hepes-KOH, 1 mM EDTA and 5 mM dithiothreitol and stored in aliquots at −80°C.
Mutations were made in the MBP H3 116–135 construct using a mixture of site-direct mutagenesis and oligo ligation. Whole cell extracts were prepared from bacteria and used as inputs for the pulldown experiments with (His)6-sNASP pre-bound to Nickel-NTA beads (GE Healthcare).
A BsNASP mutantsH3 peptide […]
200 A260 M Elution volume (mL) […]
construct used for NMR (A) Various truncations of (His)6-sNASP were tested for their ability to pull down MBP -H3 116-135 ( W T ) or a scrambled peptide (Sc). […]
separated by SDS-PAGE and stained with Coomassie. […]
western blotting for MBP was also carried out. (B) Domain diagrams of truncations shown in A with TPR motifs in green, the acidic loop region in yellow and the predicted capping region in grey. A summar y of the interaction with MBP-H3 116-135 is shown on the right hand side.
Binding Protein; CR, capping region; TPR, tetratricopeptide repeat; cTPR, contiguous TPR; mcTPR, minimum contiguous […]
In general terms: Immunoblotting shows a protein as a band on a membrane.

B1: N-330: sNASP truncated at residue 330 (protein, UniProt P49321 1-330, looked up, fragment)
chain: MAMESTATAAVAAELVSADKIEDVPAPSTSADKVESLDVDSEAKKLLGLGQKHLVMGDIPAAVNAFQEAASLLGKKYGETANECGEAFFFYGKSLLELARMENGVLGNALEGVHVEEEEGEKTEDESLVENNDNIDEEAREELREQVYDAMGEKEEAKKTEDKSLAKPETDKEQDSEMEKGGREDMDISKSAEEPQEKVDLTLDWLTETSEEAKGGAAPEGPNEAEVTSGKPEQEVPDAEEEKSVSGTDVQEECREKGGQEKQGEVIVSIEEKPKEVSEEQPVVTLEKQGTAVEVEAESLDPTVKPVDVGGDEPEEKVVTSENEAGKAVL
modifications: sNASP
Consider B1, for which the “ability to bind / pull down MBP H3 116–135” value is “binds the H3 C-terminal peptide with affinity similar to the full length”. Also, the “ability to bind / pull down MBP H3 116–135” value (listed as truncation at residue 330) is on record as “retained the interaction”.

B2: N-300: sNASP truncated at residue 300 (protein, UniProt P49321 1-300, looked up, fragment)
chain: MAMESTATAAVAAELVSADKIEDVPAPSTSADKVESLDVDSEAKKLLGLGQKHLVMGDIPAAVNAFQEAASLLGKKYGETANECGEAFFFYGKSLLELARMENGVLGNALEGVHVEEEEGEKTEDESLVENNDNIDEEAREELREQVYDAMGEKEEAKKTEDKSLAKPETDKEQDSEMEKGGREDMDISKSAEEPQEKVDLTLDWLTETSEEAKGGAAPEGPNEAEVTSGKPEQEVPDAEEEKSVSGTDVQEECREKGGQEKQGEVIVSIEEKPKEVSEEQPVVTLEKQGTAVEVEAESL
modifications: sNASP
On to B2, for which the “ability to bind / pull down MBP H3 116–135” value is on record as “incapable of binding H3”. For the setting “listed as Truncating sNASP close to TPR4 at residue 300”, the “ability to bind / pull down MBP H3 116–135” value is listed as “loss of interaction”.
